We go through 29 sequences from the supplement of paper PMC10201428.

± gives the standard deviation of the averaged measurements.

Data set [1] deals with VchCAST RNA-guided transposition machinery (E. coli BL21(DE3) host, lacZ target). Description: relative integration efficiency (T-LR orientation) vs wild-type transposon end (log2 (normalized fold change)); transposon end mutated: left end; higher = more efficient transposition. An outline of the steps:
(§1)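 Each barcoded pool, 1549 left-end or 1849 right-end transposon variants in a pUC57 mini-transposon donor, went into E. coli BL21(DE3) with a T7-driven effector plasmid (CRISPR array, tniQ-cas8-cas7-cas6, tnsA-tnsB-tnsC). Plates contained 0.1 mM IPTG and were held at 37°C for 18 h. Input plasmids and genomic integration junctions were PCR-amplified and read by Illumina sequencing, with two biological output replicates and four reference barcodes. Relative integration efficiency is the fold change of output over input barcode abundance, normalised to the reference barcodes and log-transformed.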

The test system is the same in data set [2]. The data set can be described thus: relative integration efficiency (T-RL orientation) vs wild-type transposon end (log2 (normalized fold change)); transposon end mutated: left end; higher = more efficient transposition. The procedure, abridged:
as §1

As to “AATGTTGTTGATGCAACCATAAAGTGATATTTAATAATTATTTATAATCAGCAACTTAACCACAACCATATATTGATATCTCACAAAACAACCATAAGTTGATATTTTCAAAATGTGAATCGAGTATTTCAGCAAAACTACTGCAGTAAGAA”, the “relative integration efficiency (log2)” value in data set [1] was -2.53 ± 1.4; in data set [2], -5.07 ± 0.94.
“AATGTTGTTGATGCAACCATAAAGTGATATTTAATAATTATTTATAATCAGCAACTTAACCACAACCATATATTGATATCTCCAAAAACAAAACAACCATAAGTTGATATTTTTGTGAATCGAGTATTTCAGCAAAACTACTGCAGTAAGAA”: the “relative integration efficiency (log2)” value in data set [1] was -2.36 ± 0.59; in data set [2] it was -3.07 ± 1.
With “AATGTTGTTGATGCAACCATAAAGTGATATTTAATAATTATTTATAATCAGCAACTTAACCACACAACCATATATTGATATCTCAAAACAAAACAACCATAAGTTGATATTTTTGTGAATCGAGTATTTCAGCAAAACTACTGCAGTAAGAA”, the figures for the “relative integration efficiency (log2)” value in data set [1] and in data set [2] were -3.44 ± 2.9 and -2.19 ± 0.45, respectively.
The like results for “AATGTTGTTGATGCAACCATAAAGTGATATTTAATAATTATTTATAATCAGCAACTTAACCACACAACCATATATTGATATCTCACAAAACAACCATAAGTTGATATTTTTGTGAATCGAGTATTTCAGCAAAACTACTGCAGTAAGAAAGT” were, in that order, -2.81 ± 1.1 and -4.27 ± 1.1.
As to “AATGTTGTTGATGCAACCATAAAGTGATATTTAATAATTATTTATAATCAGCAACTTAACCACACCCACCAACGCGCGGTCGCGAGACACCCCACCAACGCCTGGTCGCGGGGGTGTCCGATCTGATTTCAGCAAAACTACTGCAGTAAGAA”, the entries for the “relative integration efficiency (log2)” value in data set [1] and in data set [2] were -3.59 ± 0.93 and -6.25 ± 1.4, respectively.
The like results for “AATGTTGTTGATGCAACCATAAAGTGATATTTAATAATTATTTATAATCAGCAACTTACAACCATATATTGATATCTCACAAAACAACCATAAGTTGATATTTTACCACAAAATGTGAATCGAGTATTTCAGCAAAACTACTGCAGTAAGAA” were, in that order, -1.12 ± 1.1 and -1 ± 0.61.
“AATGTTGTTGATGCAACCATAAAGTGATATTTAATAATTATTTATAATCAGCAACTTACAACCATATATTGATATCTCACAAAACAACCATAAGTTGATATTTTTGTGAATCGAGTATTTCAGCAAAACTACTGCAGTAAGAAAGTTACTTC”: the “relative integration efficiency (log2)” value in data set [1] was -0.998 ± 0.78; in data set [2] it was -0.809 ± 0.49.
On to “AATGTTGTTGATGCAACCATAAAGTGATATTTAATAATTATTTATAATCAGCAACTTACAACCATATATTGATATCTCACCACAAAAACAAAACAACCATAAGTTGATATTTTTGTGAATCGAGTATTTCAGCAAAACTACTGCAGTAAGAA”, for which the “relative integration efficiency (log2)” value is 0.226 ± 1.1 in data set [1] and -0.417 ± 0.35 in data set [2].
On to “AATGTTGTTGATGCAACCATAAAGTGATATTTAATAATTATTTATAATCAGCAACTTCAACCATATATTGATATCTCAACCACAAAAACAAAACAACCATAAGTTGATATTTTTGTGAATCGAGTATTTCAGCAAAACTACTGCAGTAAGAA”, for which the results for the “relative integration efficiency (log2)” value in data set [1] and in data set [2] were -2.92 ± 1.7 and -2.25 ± 0.7, respectively.
The like results for “AATGTTGTTGATGCAACCATAAAGTGATATTTAATAATTATTTATAATCAGCAACTTCAACCATATATTGATATCTCACAAAACAACCATAAGTTGATATTTTAACCACAAAATGTGAATCGAGTATTTCAGCAAAACTACTGCAGTAAGAA” were, in that order, -1.03 ± 0.79 and -0.834 ± 0.54.
Consider “AATGTTGTTGATGCAACCATAAAGTGATATTTAATAATTATTTATAATCAGCAACTTCAACCATATATTGATATCTCACAAAACAACCATAAGTTGATATTTTTGTGAATCGAGTATTTCAGCAAAACTACTGCAGTAAGAAAGTTACTTCG”, for which the entries for the “relative integration efficiency (log2)” value in data set [1] and in data set [2] were -0.903 ± 0.24 and -1.06 ± 0.45, respectively.
The like results for “AATGTTGTTGATGCAACCATAAAGTGATATTTAATAATTATTTATAATCAGCACAACCATATATTGATATCTCACTTAACCACAAAAACAAAACAACCATAAGTTGATATTTTTGTGAATCGAGTATTTCAGCAAAACTACTGCAGTAAGAA” were, in that order, under -10 and -6.85 ± 0.48.
On to “AATGTTGTTGATGCAACCATAAAGTGATATTTAATAATTATTTATAATCAGCACAGGCCAACACCCCACCAACGCGCGGTCGCGAGACACCCCACCAACGCCTGGTCGCGGGGGTGTCCGATCTGATTTCAGCAAAACTACTGCAGTAAGAA”, for which the entries for the “relative integration efficiency (log2)” value in data set [1] and in data set [2] were -3.578 ± 0.033 and -7.2 ± 1.5, respectively.
As to “AATGTTGTTGATGCAACCATAAAGTGATATTTAATAATTATTTATAATCAGCCAACCATATATTGATATCTCACAAAACAACCATAAGTTGATATTTTTGTGAATCGAGTATTTCAGCAAAACTACTGCAGTAAGAAAGTTACTTCGTGGTA”, the “relative integration efficiency (log2)” value in data set [1] is -4.33 ± 0.31; in data set [2] it was -7.71 ± 0.64.
Regarding “AATGTTGTTGATGCAACCATAAAGTGATATTTAATAATTATTTATAATCAGCCCAGGCCAACACCCCACCAACGCGCGGTCGCGAGACACCCCACCAACGCCTGGTCGCGGGGGTGTCCGATCTGATTTCAGCAAAACTACTGCAGTAAGAA”, the entries for the “relative integration efficiency (log2)” value in data set [1] and in data set [2] were -4.09 ± 1.1 and -6.41 ± 1.4, respectively.
The like results for “AATGTTGTTGATGCAACCATAAAGTGATATTTAATAATTATTTATAATCCTACCAGGCCAACACCCCACCAACGCGCGGTCGCGAGACACCCCACCAACGCCTGGTCGCGGGGGTGTCCGATCTGATTTCAGCAAAACTACTGCAGTAAGAA” were, in that order, -5.08 ± 3.7 and -6.45 ± 1.8.
“AATGTTGTTGATGCAACCATAAAGTGATATTTAATAATTATTTATACAACCATAAAGTGATATTTAACAACCATATATTGATATCTCACAAAACAACCATAAGTTGATATTTTTGTGAATCGAGTATTTCAGCAAAACTACTGCAGTAAGAA”: the “relative integration efficiency (log2)” value is -4.48 ± 0.05 in data set [1] and -6.31 ± 0.44 in data set [2].
As for “AATGTTGTTGATGCAACCATAAAGTGATATTTAATAATTATTTATACAACCATATATTGATATCTCATCAGCAACTTAACCACAAAAACAAAACAACCATAAGTTGATATTTTTGTGAATCGAGTATTTCAGCAAAACTACTGCAGTAAGAA”, the “relative integration efficiency (log2)” value is -1.08 ± 0.46 in data set [1] and -4.35 ± 0.47 in data set [2].
In the case of “AATGTTGTTGATGCAACCATAAAGTGATATTTAATAATTATTTATACGACTACCAGGCCAACACCCCACCAACGCGCGGTCGCGAGACACCCCACCAACGCCTGGTCGCGGGGGTGTCCGATCTGATTTCAGCAAAACTACTGCAGTAAGAA”, the “relative integration efficiency (log2)” value in data set [1] was -4.47 ± 0.46; in data set [2] it was -6.45 ± 1.3.
As for “AATGTTGTTGATGCAACCATAAAGTGATATTTAATAATTATTTATCAACCATAAAGTGATATTTAACCAACCATATATTGATATCTCACAAAACAACCATAAGTTGATATTTTTGTGAATCGAGTATTTCAGCAAAACTACTGCAGTAAGAA”, the figures for the “relative integration efficiency (log2)” value in data set [1] and in data set [2] were -2.57 ± 2 and -6.32 ± 2.1, respectively.
For “AATGTTGTTGATGCAACCATAAAGTGATATTTAATAATTATTTATCAACCATATATTGATATCTCAATCAGCAACTTAACCACAAAAACAAAACAACCATAAGTTGATATTTTTGTGAATCGAGTATTTCAGCAAAACTACTGCAGTAAGAA”, the “relative integration efficiency (log2)” value in data set [1] is -2.91 ± 2.7; in data set [2], -4.61 ± 1.4.
For “AATGTTGTTGATGCAACCATAAAGTGATATTTAATAATTATTTATCAACCATATATTGATATCTCACAAAACAACCATAAGTTGATATTTTTGTGAATCGAGTATTTCAGCAAAACTACTGCAGTAAGAAAGTTACTTCGTGGTATGGGAGG”, the “relative integration efficiency (log2)” value in data set [1] is -3.55 ± 2.2; in data set [2], -6.15 ± 0.83.
The like results for “AATGTTGTTGATGCAACCATAAAGTGATATTTAATAATTATTTCAACCATATATTGATATCTCACAAAACAACCATAAGTTGATATTTTTGTGAATCGAGTATTTCAGCAAAACTACTGCAGTAAGAAAGTTACTTCGTGGTATGGGAGGAT” were, in that order, -3.12 ± 1.5 and -6.94 ± 1.9.
The like results for “AATGTTGTTGATGCAACCATAAAGTGATATTTAATAATTATTTCGAACTAGTTAACTAGTACGCAAACAACCATATATTGATATCTCACAAAACAACCATAAGTTGATATTTTTGTGAATCGAGTATTTCAGCAAAACTACTGCAGTAAGAA” were, in that order, under -10 and -4.69 ± 1.4.
For “AATGTTGTTGATGCAACCATAAAGTGATATTTAATAATTATTTCGCCGACTACCAGGCCAACACCCCACCAACGCGCGGTCGCGAGACACCCCACCAACGCCTGGTCGCGGGGGTGTCCGATCTGATTTCAGCAAAACTACTGCAGTAAGAA”, the “relative integration efficiency (log2)” value was -6.08 ± 3.8 in data set [1] and -7.27 ± 1.6 in data set [2].
The like results for “AATGTTGTTGATGCAACCATAAAGTGATATTTAATAATTCAACCATATATTGATATCTCATTTATAATCAGCAACTTAACCACAAAAACAAAACAACCATAAGTTGATATTTTTGTGAATCGAGTATTTCAGCAAAACTACTGCAGTAAGAA” were, in that order, -2.63 ± 2.9 and -3.05 ± 1.3.
The like results for “AATGTTGTTGATGCAACCATAAAGTGATATTTAATAATTGGCAGTGAGCGCAACGCAATTCACAAAACAACCATATATTGATATCTCACAAAACAACCATAAGTTGATATTTTTGTGAATCGAGTATTTCAGCAAAACTACTGCAGTAAGAA” were, in that order, -3.88 ± 2.9 and -2.76 ± 1.
As to “AATGTTGTTGATGCAACCATAAAGTGATATTTAATACAACCATAAAGTGATATTTAACTTAACCACACAACCATATATTGATATCTCACAAAACAACCATAAGTTGATATTTTTGTGAATCGAGTATTTCAGCAAAACTACTGCAGTAAGAA”, the “relative integration efficiency (log2)” value in data set [1] is -3.38 ± 1.9; in data set [2] it was -5.26 ± 0.97.
As to “AATGTTGTTGATGCAACCATAAAGTGATATTTAATACAACCATATATTGATATCTCACAAAACAACCATAAGTTGATATTTTTGTGAATCGAGTATTTCAGCAAAACTACTGCAGTAAGAAAGTTACTTCGTGGTATGGGAGGATCAAGGAG”, the “relative integration efficiency (log2)” value in data set [1] was -2.15 ± 1.6; in data set [2] it was -4.83 ± 1.7.
